Laboratory results: patent US20230212549A1 (3B PHARMACEUTICALS, published 2023)
Where “and” joins values, the source holds several entries; their conditions need not be identical. Equal entries are not always repeated. Numbered stars: 1 amine (or outer) side, 2 acyl side, 3 side chain; on linkers, the order of the positions; unused ones are H or OH. Bridge positions count the residues as written; N and C are the ends. Square brackets hold non-standard residues; d marks the D form. Primed or numbered codes have the meaning given here. Side chains are listed from the residue outwards. * marks the point of attachment. TBMB(SCH2CH2NH-DOTA) = O=C(O)CN1CCN(CC(=O)O)CCN(CC(=O)NCCSCc2cc(C[*:1])cc(C[*:2])c2)CCN(CC(=O)O)CC1; Ttds = 1,13-diamino-4,7,10-trioxatridecan-succinamic acid, O=C(CCC(=O)[*:2])NCCCOCCOCCOCCCN[*:1]; DOTA = O=C(O)CN1CCN(CC(=O)O)CCN(CC(=O)*)CCN(CC(=O)O)CC1; Bip = N[C@@H](Cc1ccc(-c2ccccc2)cc1)C(=O)O; Met(O2) = CS(=O)(=O)CC[C@H](N)C(=O)O; mXylylene = c1cc(C[*:1])cc(C[*:2])c1; NMeE = CN[C@@H](CCC(=O)O)C(=O)O; 3Amb = NCc1cccc(C(=O)O)c1; 4Amb = NCc1ccc(C(=O)O)cc1; DOTA′ = not defined here; Nle = CCCC[C@H](N)C(=O)O; Nphe = O=C(O)CNCc1ccccc1; Apr = not defined here; Hexanoyl = CCCCCC(=O)*; AEEA = NCCOCCOCC(=O)O

Tests used:
[1] = molecular target: Recombinant human FAP (R&D systems, #3715-SE) (human, UniProt Q12884 26-760); test: cell-based or functional assay
[2] = molecular target: T1, fibroblast activation protein (FAP) on FAP-expressing human WI-38 fibroblasts (human, UniProt Q12884 1-760); test: competitive FACS, WI-38 cells, vs Cy5 tracer m3; A = pIC50 >8.0
T1 construct: also called human FAP

Row | Binder | pIC50 Category (Activity) [1] | pIC50 Category (FACS) [2]
1 | Hexanoyl-CPPTE([Apr-DOTA′])FCD-NH2 (linker 1-7 via mXylylene; reading uncertain; also: printed as Hex-[Cys(3MeBn)-Pro-Pro-Thr-Glu(NH-Apr-DOTA′)-Phe-Cys]-Asp-NH2) [Hex-[Cys(3MeBn)-Pro-Pro-Thr-Glu(NH-Apr-DOTA′)-Phe-Cys]-Asp-NH2] | ≤ 6 pIC50 | –
2 | Hexanoyl-CPPTAFC-NH2 (linker 1-7 via mXylylene; SMILES CCCCCC(=O)N[C@H]1CSCc2cccc(c2)CSC[C@@H](C(N)=O)NC(=O)[C@H](Cc2ccccc2)NC(=O)[C@H](C)NC(=O)[C@H]([C@@H](C)O)NC(=O)[C@@H]2CCCN2C(=O)[C@@H]2CCCN2C1=O) [Hex-[Cys(3MeBn)-Pro-Pro-Thr-Ala-Phe-Cys]-NH2] | ≤ 6 pIC50 | –
3 | Hexanoyl-CPPTEFCD[3Amb]R-NH2 (linker 1-7 via mXylylene; SMILES CCCCCC(=O)N[C@H]1CSCc2cccc(c2)CSC[C@@H](C(=O)N[C@@H](CC(=O)O)C(=O)NCc2cccc(C(=O)N[C@@H](CCCNC(=N)N)C(N)=O)c2)NC(=O)[C@H](Cc2ccccc2)NC(=O)[C@H](CCC(=O)O)NC(=O)[C@H]([C@@H](C)O)NC(=O)[C@@H]2CCCN2C(=O)[C@@H]2CCCN2C1=O, also called 3BP-3324) [Hex-[Cys(3MeBn)-Pro-Pro-Thr-Glu-Phe-Cys]-Asp-Mamb-Arg-NH2] | > 8 pIC50 | > 8 pIC50
4 | Hexanoyl-CPPT[Met(O2)]FC-NH2 (linker 1-7 via mXylylene; SMILES CCCCCC(=O)N[C@H]1CSCc2cccc(c2)CSC[C@@H](C(N)=O)NC(=O)[C@H](Cc2ccccc2)NC(=O)[C@H](CCS(C)(=O)=O)NC(=O)[C@H]([C@@H](C)O)NC(=O)[C@@H]2CCCN2C(=O)[C@@H]2CCCN2C1=O) [Hex-[Cys(3MeBn)-Pro-Pro-Thr-Moo-Phe-Cys]-NH2] | ≤ 6 pIC50 | –
5 | Hexanoyl-CPPT[NMeE]FC-NH2 (linker 1-7 via mXylylene; SMILES CCCCCC(=O)N[C@H]1CSCc2cccc(c2)CSC[C@@H](C(N)=O)NC(=O)[C@H](Cc2ccccc2)NC(=O)[C@H](CCC(=O)O)N(C)C(=O)[C@H]([C@@H](C)O)NC(=O)[C@@H]2CCCN2C(=O)[C@@H]2CCCN2C1=O) [Hex-[Cys(3MeBn)-Pro-Pro-Thr-Nme-Phe-Cys]-NH2] | ≤ 6 pIC50 | –
6 | Hexanoyl-CPPTE[Bip]C-NH2 (linker 1-7 via mXylylene; SMILES CCCCCC(=O)N[C@H]1CSCc2cccc(c2)CSC[C@@H](C(N)=O)NC(=O)[C@H](Cc2ccc(-c3ccccc3)cc2)NC(=O)[C@H](CCC(=O)O)NC(=O)[C@H]([C@@H](C)O)NC(=O)[C@@H]2CCCN2C(=O)[C@@H]2CCCN2C1=O) [Hex-[Cys(3MeBn)-Pro-Pro-Thr-Glu-Bip-Cys]-NH2] | ≤ 6 pIC50 | –
7 | Hexanoyl-CPPAEFC-NH2 (linker 1-7 via mXylylene; SMILES CCCCCC(=O)N[C@H]1CSCc2cccc(c2)CSC[C@@H](C(N)=O)NC(=O)[C@H](Cc2ccccc2)NC(=O)[C@H](CCC(=O)O)NC(=O)[C@H](C)NC(=O)[C@@H]2CCCN2C(=O)[C@@H]2CCCN2C1=O) [Hex-[Cys(3MeBn)-Pro-Pro-Ala-Glu-Phe-Cys]-NH2] | ≤ 6 pIC50 | –
8 | Hexanoyl-CAPTEFC-NH2 (linker 1-7 via mXylylene; SMILES CCCCCC(=O)N[C@H]1CSCc2cccc(c2)CSC[C@@H](C(N)=O)NC(=O)[C@H](Cc2ccccc2)NC(=O)[C@H](CCC(=O)O)NC(=O)[C@H]([C@@H](C)O)NC(=O)[C@@H]2CCCN2C(=O)[C@H](C)NC1=O) [Hex-[Cys(3MeBn)-Ala-Pro-Thr-Glu-Phe-Cys]-NH2] | 6.1 pIC50 and 7 pIC50 | –
9 | Hexanoyl-CPPTEFC-NH2 (linker 1-7 via TBMB(SCH2CH2NH-DOTA); SMILES CCCCCC(=O)N[C@H]1CSCc2cc(CSCCNC(=O)CN3CCN(CC(=O)O)CCN(CC(=O)O)CCN(CC(=O)O)CC3)cc(c2)CSC[C@@H](C(N)=O)NC(=O)[C@H](Cc2ccccc2)NC(=O)[C@H](CCC(=O)O)NC(=O)[C@H]([C@@H](C)O)NC(=O)[C@@H]2CCCN2C(=O)[C@@H]2CCCN2C1=O, also called 3BP-3653) [Hex-[Cys(tMeBn(DOTA-AET))-Pro-Pro-Thr-Glu-Phe-Cys]-NH2] | > 8 pIC50 | > 8 pIC50
10 | Hexanoyl-CPPTEAC-NH2 (linker 1-7 via mXylylene; SMILES CCCCCC(=O)N[C@H]1CSCc2cccc(c2)CSC[C@@H](C(N)=O)NC(=O)[C@H](C)NC(=O)[C@H](CCC(=O)O)NC(=O)[C@H]([C@@H](C)O)NC(=O)[C@@H]2CCCN2C(=O)[C@@H]2CCCN2C1=O) [Hex-[Cys(3MeBn)-Pro-Pro-Thr-Glu-Ala-Cys]-NH2] | 6.1 pIC50 and 7 pIC50 | –
11 | Hexanoyl-CPPTE([Apr-AEEA-DOTA′])FCD-NH2 (linker 1-7 via mXylylene; reading uncertain; also: printed as Hex-[Cys(3MeBn)-Pro-Pro-Thr-Glu(NH-Apr-O2Oc-DOTA′)-Phe-Cys]-Asp-NH2) [Hex-[Cys(3MeBn)-Pro-Pro-Thr-Glu(NH-Apr-O2Oc-DOTA′)-Phe-Cys]-Asp-NH2] | 6.1 pIC50 and 7 pIC50 | –
12 | Hexanoyl-CPPTEFCD-NH2 (linker 1-7 via mXylylene; SMILES CCCCCC(=O)N[C@H]1CSCc2cccc(c2)CSC[C@@H](C(=O)N[C@@H](CC(=O)O)C(N)=O)NC(=O)[C@H](Cc2ccccc2)NC(=O)[C@H](CCC(=O)O)NC(=O)[C@H]([C@@H](C)O)NC(=O)[C@@H]2CCCN2C(=O)[C@@H]2CCCN2C1=O) [Hex-[Cys(3MeBn)-Pro-Pro-Thr-Glu-Phe-Cys]-Asp-NH2] | > 8 pIC50 | –
13 | {DOTA}-[Ttds][Nle]CPPTEFCD[4Amb]R-NH2 (linker 3-9 via mXylylene; SMILES CCCC[C@H](NC(=O)CCC(=O)NCCCOCCOCCOCCCNC(=O)CN1CCN(CC(=O)O)CCN(CC(=O)O)CCN(CC(=O)O)CC1)C(=O)N[C@H]1CSCc2cccc(c2)CSC[C@@H](C(=O)N[C@@H](CC(=O)O)C(=O)NCc2ccc(C(=O)N[C@@H](CCCNC(=N)N)C(N)=O)cc2)NC(=O)[C@H](Cc2ccccc2)NC(=O)[C@H](CCC(=O)O)NC(=O)[C@H]([C@@H](C)O)NC(=O)[C@@H]2CCCN2C(=O)[C@@H]2CCCN2C1=O, also called 3BP-3321) [DOTA-Ttds-Nle-[Cys(3MeBn)-Pro-Pro-Thr-Glu-Phe-Cys]-Asp-Pamb-Arg-NH2] | > 8 pIC50 | > 8 pIC50
14 | Hexanoyl-CPPTE[Nphe]C-NH2 (linker 1-7 via mXylylene; SMILES CCCCCC(=O)N[C@H]1CSCc2cccc(c2)CSC[C@@H](C(N)=O)NC(=O)CN(Cc2ccccc2)C(=O)[C@H](CCC(=O)O)NC(=O)[C@H]([C@@H](C)O)NC(=O)[C@@H]2CCCN2C(=O)[C@@H]2CCCN2C1=O) [Hex-[Cys(3MeBn)-Pro-Pro-Thr-Glu-Nphe-Cys]-NH2] | ≤ 6 pIC50 | –
15 | {DOTA}-[Ttds][Nle]CPPTQFCD-NH2 (linker 3-9 via mXylylene; SMILES CCCC[C@H](NC(=O)CCC(=O)NCCCOCCOCCOCCCNC(=O)CN1CCN(CC(=O)O)CCN(CC(=O)O)CCN(CC(=O)O)CC1)C(=O)N[C@H]1CSCc2cccc(c2)CSC[C@@H](C(=O)N[C@@H](CC(=O)O)C(N)=O)NC(=O)[C@H](Cc2ccccc2)NC(=O)[C@H](CCC(N)=O)NC(=O)[C@H]([C@@H](C)O)NC(=O)[C@@H]2CCCN2C(=O)[C@@H]2CCCN2C1=O, also called 3BP-3401) [DOTA-Ttds-Nle-[Cys(3MeBn)-Pro-Pro-Thr-Gln-Phe-Cys]-Asp-NH2] | > 8 pIC50 | > 8 pIC50
